In patent US20210206880A1 (published 2021):
Changes are numbered by the printed parent chain. Names may count otherwise.

B1: MbNb60^c7HopQ mut2 (N277K, T270R) (designed binder)
chain: QVQLVESGGGLVQTKTTTSVIDTTNDAQNLLTQAQTIVNTLKDYCPILIAKSSSSNGGTNNANTPSWQTAGGGKNSCATFGAEFSAASDMINNAQKIVQETQQLSANQPKNITQPHNLNLNSPSSLTALAQKMLKNAQSQAEILKLANQVESDFNKLSSGHLKDYIGKCDASAISSANMTMQNQKNNWGNGCAGVEETQSLLKTSAADFNNQTPQINQAQNLANTLIQELGNNTYEQLSRLLTNDNGTNSKTSAQAINQAVNNLNERAKRLAGGTTKSPAYQATLLALRSVLGLWNSMGYAVICGGYTKSPGENNQKDFHYTDENGNGTTINCGGSTNSNGTHSYNGTNTLKADKNVSLSIEQYEKIHEAYQILSKALKQAGLAPLNSKGEKLEAHVTTSKYGSLRLSCAASGFTFSRYAMSWVRQAPGKGPEWVSAINSPGGSTSYADSVKGRFTISRDNAKNTLYLQMNSLKPDDTAVYYCAKYERATEWGHTIVAVTPLLDGVHDYWGQGTQVTVSSHHHHHHEPEA
notes: also called MbNb60^cHopQmut2; MbNb60^c7HopQ N277K T270R
B2: MbNb60^c7HopQ mut3 (N277K, T270R, E197R) (designed binder)
chain: B1 chain with E197R
notes: also called MbNb60^cHopQmut3; MbNb60^c7HopQ N277K T270R E197R
B3: Nb60 HopQ-specific Nanobody (VHH)
VHH: QVQLQESGGGLVQPGGSLRLSCAASGFTFSRYAMSWVRQAPGKGPEWVSAINSPGGSTSYADSVKGRFTISRDNAKNTLYLQMNSLKPDDTAVYYCAKYERATEWGHTIVAVTPLLDGVHDYWGQGTQVTVSS
notes: also called cHopQ-specific Nanobody
B4: MbNb60^cYgjkE2 (designed binder)
chain: QVQLVESGGGLVYKEETQSGLNNYARVVEKGQYDSLEIPAQVAASWESGRDDAAVFGFIDKEQLDKYVANGGKRSDWTVKFAENRSQDGTLLGYSLLQESVDQASYMYSDNHYLAEMATILGKPEEAKRYRQLAQQLADYINTCMFDPTTQFYYDVRIEDKPLANGCAGKPIVERGKGPEGWSPLFNGAATQANADAVVKVMLDPKEFNTFVPLGTAALTNPAFGADIYWRGRVWVDQFWFGLKGMERYGYRDDALKLADTFFRHAKGLTADGPIQENYNPLTGAQQGAPNFSWSAAHLYMLYNDFFRKQASGGGSGGGGSGGGGSGNADNYKNVINRTGAPQYMKDYDYDDHQRFNPFFDLGAWHGHLLPDGPNTMGGFPGVALLTEEYINFMASNFDRLTVWQDGKKVDFTLEAYSIPGALVQKLTAKDVQVEMTLRFATPRTSLLETKITSNKPLDLVWDGELLEKLEAKEGKPLSDKTIAGEYPDYQRKISATRDGLKVTFGKVRATWDLLTSGESEYQVHKSLPVQTEINGNRFTSKAHINGSTTLYTTYSHLLTAQEVSKEQMQIRDILARPAFYLTASQQRWEEYLKKGLTNPDATPEQTRVAVKAIETLNGNWRSPGGAVKFNTVTPSVTGRWFSGNQTWPWDTWKQAFAMAHFNPDIAKENIRAVFSWQIQPGDSVRPQDVGFVPDLIAWNLSPERGGDGGNWNERNTKPSLAAWSVMEVYNVTQDKTWVAEMYPKLVAYHDWWLRNRDHNGNGVPEYGATRDKAHNTESGEMLFTVKKDSLRLSCAASGFTFSRYAMSWVRQAPGKGPEWVSAINSPGGSTSYADSVKGRFTISRDNAKNTLYLQMNSLKPDDTAVYYCAKYERATEWGHTIVAVTPLLDGVHDYWGQGTQVTVSSHHHHHHEPEA
notes: also called Mb^Nb60cYgjkQE2

What was measured:
MbNb207^cHopQ [1] = target: T1, MbNb207^cHopQ; assay: BLI (Octet), biotinylated MbNb207^cHopQ on streptavidin sensors
T1 construct: also called cHopQNbGFP207; 58 kDa Megabody

MbNb207^cHopQ [2] = target: T1, MbNb207^cHopQ; assay: co-crystal structure

Binder	binding result (MbNb207^cHopQ [1])	binding result (MbNb207^cHopQ [2])
B1	binds	
B2	binds	
B3		binds
B4	binds	
